IntAct's records for PubMed 29039417

B1: Protein PTHB1 (Homo sapiens), Q3SYG4 (parent)
chain: MSLFKARDWWSTILGDKEEFDQGCLCLANVDNSGNGQDKIIVGSFMGYLRIFSPHPAKTGDGAQAEDLLLEVDLRDPVLQVEVGKFVSGTEMLHLAVLHSRKLCVYSVSGTLGNVEHGNQCQMKLMYEHNLQRTACNMTYGSFGGVKGRDLICIQSMDGMLMVFEQESYAFGRFLPGFLLPGPLAYSSRTDSFLTVSSCQQVESYKYQVLAFATDADKRQETEQQKLGSGKRLVVDWTLNIGEQALDICIVSFNQSASSVFVLGERNFFCLKDNGQIRFMKKLDWSPSCFLPYCSVSEGTINTLIGNHNNMLHIYQDVTLKWATQLPHIPVAVRVGCLHDLKGVIVTLSDDGHLQCSYLGTDPSLFQAPNVQSRELNYDELDVEMKELQKIIKDVNKSQGVWPMTEREDDLNVSVVVSPNFDSVSQATDVEVGTDLVPSVTVKVTLQNRVILQKAKLSVYVQPPLELTCDQFTFEFMTPDLTRTVSFSVYLKRSYTPSELEGNAVVSYSRPTDRNPDGIPRVIQCKFRLPLKLICLPGQPSKTASHKITIDTNKSPVSLLSLFPGFASQSDDDQVNVMGFHFLGGARITVLASKTSQRYRIQSEQFEDLWLITNELILRLQEYFEKQGVKDFACSFSGSIPLQEYFELIDHHFELRINGEKLEELLSERAVQFRAIQRRLLARFKDKTPAPLQHLDTLLDGTYKQVIALADAVEENQGNLFQSFTRLKSATHLVILLIALWQKLSADQVAILEAAFLPLQEDTQELGWEETVDAAISHLLKTCLSKSSKEQALNLNSQLNIPKDTSQLKKHITLLCDRLSKGGRLCLSTDAAAPQTMVMPGGCTTIPESDLEERSVEQDSTELFTNHRHLTAETPRPEVSPLQGVSE
partner: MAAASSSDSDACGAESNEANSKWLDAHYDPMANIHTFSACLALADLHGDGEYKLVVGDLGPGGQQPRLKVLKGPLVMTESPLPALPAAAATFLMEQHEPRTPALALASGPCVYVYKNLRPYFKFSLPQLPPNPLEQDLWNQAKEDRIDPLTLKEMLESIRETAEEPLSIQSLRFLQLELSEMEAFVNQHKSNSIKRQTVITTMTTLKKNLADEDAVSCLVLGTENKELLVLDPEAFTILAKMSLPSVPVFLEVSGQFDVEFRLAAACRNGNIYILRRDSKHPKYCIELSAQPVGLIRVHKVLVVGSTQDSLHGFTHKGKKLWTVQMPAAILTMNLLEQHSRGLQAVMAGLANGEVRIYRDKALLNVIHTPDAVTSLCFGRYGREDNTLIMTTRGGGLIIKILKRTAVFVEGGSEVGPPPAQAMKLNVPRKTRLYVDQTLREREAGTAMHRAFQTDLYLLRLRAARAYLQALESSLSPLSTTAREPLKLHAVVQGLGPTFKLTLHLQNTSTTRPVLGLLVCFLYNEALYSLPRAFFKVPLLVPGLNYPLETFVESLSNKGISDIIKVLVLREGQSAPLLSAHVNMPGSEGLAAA
B2: Isoform 2 of Bardet-Biedl syndrome 7 protein (Homo sapiens), Q8IWZ6-2 (parent)
chain: MDLILNRMDYLQVGVTSQKTMKLIPASRHRATQKVVIGDHDGVVMCFGMKKGEAAAVFKTLPGPKIARLELGGVINTPQEKIFIAAASEIRGFTKRGKQFLSFETNLTESIKAMHISGSDLFLSASYIYNHYCDCKDQHYYLSGDKINDVICLPVERLSRITPVLACQDRVLRVLQGSDVMYAVEVPGPPTVLALHNGNGGDSGEDLLFGTSDGKLALIQITTSKPVRKWEIQNEKKRGGILCIDSFDIVGDGVKDLLVGRDDGMVEVYSFDNANEPVLRFDQMLSESVTSIQGGCVGKDSYDEIVVSTYSGWVTGLTTEPIHKESGPGEELKINQEMQNKISSLRNELEHLQYKVLQERENYQQSSQSSKAKSAVPSFGINDKFTLNKDDASYSLILEVQTAIDNVLIQSDVPIDLLDVDKNSAVVSFSSCDSESNDNFLLATYRCQADTTRLELKIRSIEGQYGTLQAYVTPRIQPKTCQVRQYHIKPLSLHQRTHFIDHDRPMNTLTLTGQFSFAEVHSWVVFCLPEVPEKPPAGECVTFYFQNTFLDTQLESTYRKGEGVFKSDNISTISILKDVLSKEATKRKINLNISYEINEVSVKHTLKLIHPKLEYQLLLAKKVQLIDALKELQIHEGNTNFLIPEYHCILEEADHLQEEYKKQPAHLERLYG
partner: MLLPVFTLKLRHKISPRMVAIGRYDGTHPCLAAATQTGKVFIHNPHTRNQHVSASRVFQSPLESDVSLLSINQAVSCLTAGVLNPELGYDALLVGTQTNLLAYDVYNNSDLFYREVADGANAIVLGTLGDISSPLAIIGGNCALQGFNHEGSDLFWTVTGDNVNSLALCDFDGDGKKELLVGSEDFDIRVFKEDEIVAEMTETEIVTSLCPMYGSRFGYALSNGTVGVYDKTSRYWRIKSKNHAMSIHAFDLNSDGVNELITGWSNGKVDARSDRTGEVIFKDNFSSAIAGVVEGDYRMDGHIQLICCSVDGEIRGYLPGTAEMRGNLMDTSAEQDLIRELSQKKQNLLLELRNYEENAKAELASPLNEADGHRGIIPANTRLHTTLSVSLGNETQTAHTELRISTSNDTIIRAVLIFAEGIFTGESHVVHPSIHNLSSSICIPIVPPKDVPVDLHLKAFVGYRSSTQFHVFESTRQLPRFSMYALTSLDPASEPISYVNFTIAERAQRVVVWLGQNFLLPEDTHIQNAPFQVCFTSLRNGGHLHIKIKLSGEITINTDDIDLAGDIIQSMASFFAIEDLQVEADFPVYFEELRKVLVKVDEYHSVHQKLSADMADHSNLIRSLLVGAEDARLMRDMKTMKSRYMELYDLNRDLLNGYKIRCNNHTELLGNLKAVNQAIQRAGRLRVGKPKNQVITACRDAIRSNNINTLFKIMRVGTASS

Variants of: B1
Settings: with bbs1_human BBS1, Q8NFJ9

effect of a mutation on the interaction | Variant
with no effect | G585A
with no effect | L620K
with no effect | D817A
with no effect | V522A
with no effect | L699E
with no effect | F606E
with no effect | A730E
with no effect | Q462K
with no effect | E857K
with no effect | S667K
with no effect | P881K
with no effect | R854E
with no effect | I640K
with no effect | Y623E
with no effect | T829K
with no effect | T829E
with no effect | L692E
with no effect | A670E
with no effect | V749K
with no effect | R510A
with no effect | M839K
with no effect | I676E
with no effect | V461K
with no effect | L648A

effect of a mutation on the interaction | Variant
with no effect | L727A
with no effect | L851A
with no effect | L851E
with no effect | G502A
with no effect | Q447E
with no effect | S797A
with no effect | R679A
disrupting interaction strength | E654G
with no effect | V489E
with no effect | D859E
with no effect | R683A
with no effect | V506A
with no effect | E664K
with no effect | E664A
with no effect | T763K
with no effect | Y599E
with no effect | Q539A
with no effect | N515A
with no effect | K532A
with no effect | P479K
with no effect | L446E
with no effect | D513A
with no effect | V413E
with no effect | I846K

effect of a mutation on the interaction | Variant
with no effect | L695K
with no effect | T543K
with no effect | F756E
with no effect | L759K
with no effect | T874A
with no effect | G659E
with no effect | T468K
with no effect | T468A
with no effect | T468E
with no effect | F864E
with no effect | Q693A
with no effect | E761A
with no effect | K547A
with no effect | A775K
with no effect | Q760K
with no effect | G565E
with no effect | L814K
with no effect | F474K
with no effect | R528A
with no effect | W610K
disrupting interaction strength | L733A
with no effect | F472E
with no effect | D429K
with no effect | A586E

effect of a mutation on the interaction | Variant
with no effect | L465K
with no effect | P691E
with no effect | G767E
with no effect | E647K
with no effect | S635K
with no effect | V444K
with no effect | V444E
with no effect | M837A
with no effect | D747E
with no effect | T613E
with no effect | T613A
with no effect | L609A
with no effect | V505E
with no effect | V505A
with no effect | P556K
with no effect | I451E
with no effect | L784A
with no effect | L618A
with no effect | D696A
with no effect | W768K
with no effect | T845A
with no effect | Q597K
with no effect | Q597E
with no effect | P516K

effect of a mutation on the interaction | Variant
with no effect | N576E
with no effect | C826A
with no effect | S880E
with no effect | L500K
with no effect | T552K
with no effect | L655E
with no effect | K821E
with no effect | P419K
with no effect | V629A
with no effect | S745K
with no effect | F487K
with no effect | I812K
with no effect | F636E
with no effect | S593K
with no effect | L780K
with no effect | S545K
with no effect | L666E
with no effect | Q835A
with no effect | Q722K
with no effect | R868K
with no effect | I776A

Variants of: B2
Settings: with bbs2_human BBS2, Q9BXC9

effect of a mutation on the interaction | Variant
with no effect | Y671E
with no effect | Y671K
with no effect | Y671A
with no effect | H666A
with no effect | H666E
with no effect | H666K
with no effect | L670A
with no effect | L670K
with no effect | L670E
with no effect | D654K
with no effect | D654A
with no effect | D654E
with no effect | L650A
with no effect | L650E
with no effect | L650K
with no effect | H647E
with no effect | H647K
with no effect | H647A
with no effect | K661A
with no effect | K661E
with no effect | R669E
with no effect | R669A
with no effect | R669K

effect of a mutation on the interaction | Variant
with no effect | E652A
with no effect | E652K
with no effect | E651A
with no effect | E651K
with no effect | L667E
with no effect | L667K
with no effect | L667A
with no effect | G672E
with no effect | G672A
with no effect | G672K
with no effect | C648E
with no effect | C648K
with no effect | C648A
with no effect | Q657E
with no effect | Q657K
with no effect | Q657A
with no effect | Q663A
with no effect | Q663E
with no effect | Q663K
with no effect | L656K
with no effect | L656A
with no effect | L656E
with no effect | A665K

effect of a mutation on the interaction | Variant
with no effect | A665E
with no effect | E659A
with no effect | E659K
with no effect | H655E
with no effect | H655K
with no effect | H655A
with no effect | P664A
with no effect | P664K
with no effect | P664E
with no effect | I649E
with no effect | I649A
with no effect | I649K
with no effect | K662A
with no effect | K662E
with no effect | A653E
with no effect | A653K
with no effect | E668K
with no effect | E668A
with no effect | Y660A
with no effect | Y660E
with no effect | Y660K
with no effect | E658K
with no effect | E658A

Variants of: B2
Settings: with bbs2_human BBS2, Q9BXC9
Remark: another data set of the same source

effect of a mutation on the interaction | Variant
with no effect | S556R
